Laboratory results reported in paper PMC6775479.

Assays:
[1] = target: HPV16 L1 protein (human papillomavirus type 16) (UniProt P03101)
[2] = target: L1-I peptide (HPV16 L1 residues 474-488) (human papillomavirus type 16); assay: ITC; peptide (1 mM) in 50 mM phosphate buffer pH 7.4 in the sample cell; 3HP-β-LG or β-LG (50 μM) in the titration needle; 18°C, 2 μl injections
[3] = target: L1-II peptide (HPV16 L1 residues 493-505) (human papillomavirus type 16); assay: as above

Chain of UniProt P03101 (P03101 whole entry, the tested form may be a part): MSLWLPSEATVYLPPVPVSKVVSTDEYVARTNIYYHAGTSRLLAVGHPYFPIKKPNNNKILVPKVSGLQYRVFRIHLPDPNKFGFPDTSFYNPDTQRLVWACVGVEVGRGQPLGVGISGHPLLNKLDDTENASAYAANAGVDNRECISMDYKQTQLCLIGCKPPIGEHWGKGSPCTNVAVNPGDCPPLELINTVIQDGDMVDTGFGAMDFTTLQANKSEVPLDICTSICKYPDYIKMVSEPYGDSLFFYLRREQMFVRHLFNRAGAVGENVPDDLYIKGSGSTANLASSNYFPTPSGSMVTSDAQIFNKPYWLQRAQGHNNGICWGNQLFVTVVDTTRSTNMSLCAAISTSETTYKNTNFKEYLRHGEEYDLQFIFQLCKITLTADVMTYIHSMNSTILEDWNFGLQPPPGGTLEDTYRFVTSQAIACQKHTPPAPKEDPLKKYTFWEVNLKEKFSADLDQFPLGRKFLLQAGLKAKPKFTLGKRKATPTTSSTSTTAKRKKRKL

In the case of “3-hydroxyphthalic anhydride (3HP)-modified bovine beta-lactoglobulin (from UniProt P02754 17-178)”, the inhibition of HPV16 PsV entry into HeLa cells (luciferase), IC50 [1] was 0.59 µg/mL, the Ka [2] was 231000 M⁻¹ and the Ka [3] was 104000 M⁻¹.
